Laboratory results from patent US12558350B2, “Compositions and methods for treatment” (Bausch + Lomb Ireland Limited, priority 2005, dated 2026).

Key:
LFA-1 [1] = biological target: T1, LFA-1 (Homo sapiens, UniProt P05107+P20701); assay: LFA-1/small molecule ligand binding ELISA; details: FIG. 10B, D, F
T1 construct: made in house; host or cells: human 293 cells
Description: (§1) Pharmacologic Analysis of Drug-Receptor Interaction, Lippincott-Raven, Philadelphia). […] The order of antagonist concentrations was, -[…]-(lowest added antagonist concentration), -Δ-, -μ-, -♦-, -▪-, -σ- to -λ-(highest antagonist concentration). The fits of the data are shown as the solid lines. The data shown are from one plate and are representative of a minimum of two experiments.
(§2) In all cases the ligand was added concurrently with the antagonist. The plates were incubated for 6 h at 37° C. to approach equilibrium conditions after antagonist and ligand addition, before wash and addition of the detection antibody. The EC50 values for each curve were determined by fitting with a four parameter model as described above. […] The slopes of the plots of the Log (Conc. ratio −1) vs. Antagonist concentration are calculated by fitting the line to the linear equation, Y=A+BX.

LFA-1/ICAM-1 = biological target: T2, LFA-1/ICAM-1 (Homo sapiens, UniProt P05107+P20701); assay: LFA-1/ICAM-1 ligand binding ELISA with Schild analysis
T2 construct: made in house; host or cells: human 293 cells
Excerpt: as §1
This model is based upon the assumptions that equiactive responses in an assay are the result of equivalent occupancy of receptor by ligand and that maximal binding is unchanged by the presence of antagonist. In a Schild analysis, the dose ratio is the ratio of the EC50 values in the presence and absence of antagonist and is a measure of the ligand concentrations leading to equiactive responses. This dose ratio was determined for each concentration of antagonist and the Schild regressions were plotted as shown in FIG. 11.
as §2

LFA-1 [2] = biological target: T1, LFA-1; assay: LFA-1/small molecule ELISA, antagonist competition with compound 2B; details: 25 nM compound 2B; FIG. 8B; read-out: IC50, inhibition of binding of compound 2B to LFA-1
Description: 96-well plates were coated with 5 μg/ml (33.3 nM) mouse anti-human 82 integrin (a non-function blocking antibody) in phosphate-buffered saline (PBS) overnight at 4° C. The plates were blocked with assay buffer (20 mM Hepes, pH 7.2, 140 mM NaCl, 1 mM MnCl2, 0.5% bovine serum albumin (BSA) and 0.05% Tween-20) for 1 hour at room temperature. After washing in buffer (50 mM Tris-HCl, pH 7.5, 100 mM NaCl, 1 mM MnCl2, and 0.05% Tween-20), 8 nM LFA-1 (LFA-1/ICAM-1 ELISA) or 2 nM LFA-1 (LFA-1/small molecule ELISA) were added, followed by incubation for 1 h at 37° C. […] In the LFA-1/small molecule ELISA, the diluted antagonists and 25 nM compound 2B were added concurrently to the plates, followed by a 2-hour incubation at 37° C. Sheep anti-fluorescein-HRP was added after a wash and incubated for one hour at 37° C. For both assays, after washing, the bound HRP-conjugated antibodies were detected by addition of tetramethylbenzidine (TMB) followed by measurement of the absorbance of the product at 450 nm after the addition of 1 M H3PO4 to stop the reaction. The IC50 values for each curve were determined by fitting to the four-parameter equation described above using KaleidaGraph software.

T2 sequence (P20701 26-1170): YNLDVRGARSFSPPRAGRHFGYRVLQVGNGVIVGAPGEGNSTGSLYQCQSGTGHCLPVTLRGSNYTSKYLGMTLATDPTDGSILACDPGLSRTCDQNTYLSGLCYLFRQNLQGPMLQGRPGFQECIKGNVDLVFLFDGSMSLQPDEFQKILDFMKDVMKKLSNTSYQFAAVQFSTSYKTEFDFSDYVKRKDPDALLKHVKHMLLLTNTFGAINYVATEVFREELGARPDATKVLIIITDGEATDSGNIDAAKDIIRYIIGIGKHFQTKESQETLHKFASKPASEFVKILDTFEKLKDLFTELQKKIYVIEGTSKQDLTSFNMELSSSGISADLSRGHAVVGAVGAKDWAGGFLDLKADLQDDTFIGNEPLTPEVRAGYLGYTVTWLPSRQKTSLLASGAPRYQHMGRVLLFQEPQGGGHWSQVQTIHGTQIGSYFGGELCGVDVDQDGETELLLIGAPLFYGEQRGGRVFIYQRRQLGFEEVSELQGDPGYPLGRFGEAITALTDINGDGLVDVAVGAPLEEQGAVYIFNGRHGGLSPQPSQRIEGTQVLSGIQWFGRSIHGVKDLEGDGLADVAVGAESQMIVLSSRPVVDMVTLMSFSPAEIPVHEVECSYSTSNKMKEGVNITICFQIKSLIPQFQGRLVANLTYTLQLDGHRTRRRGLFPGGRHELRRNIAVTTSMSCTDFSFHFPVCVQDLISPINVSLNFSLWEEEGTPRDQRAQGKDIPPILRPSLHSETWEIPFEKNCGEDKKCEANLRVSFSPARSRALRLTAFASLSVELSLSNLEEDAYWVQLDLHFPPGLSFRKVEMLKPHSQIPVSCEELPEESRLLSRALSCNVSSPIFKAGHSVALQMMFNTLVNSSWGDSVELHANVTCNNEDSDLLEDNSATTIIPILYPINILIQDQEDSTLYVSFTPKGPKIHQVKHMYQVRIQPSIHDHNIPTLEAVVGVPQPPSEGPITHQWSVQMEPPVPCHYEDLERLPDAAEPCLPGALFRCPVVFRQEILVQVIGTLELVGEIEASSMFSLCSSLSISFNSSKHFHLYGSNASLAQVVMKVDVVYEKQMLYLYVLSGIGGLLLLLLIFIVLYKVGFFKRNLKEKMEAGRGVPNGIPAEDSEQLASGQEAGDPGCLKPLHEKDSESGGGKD
T2 sequence (P05107 23-769): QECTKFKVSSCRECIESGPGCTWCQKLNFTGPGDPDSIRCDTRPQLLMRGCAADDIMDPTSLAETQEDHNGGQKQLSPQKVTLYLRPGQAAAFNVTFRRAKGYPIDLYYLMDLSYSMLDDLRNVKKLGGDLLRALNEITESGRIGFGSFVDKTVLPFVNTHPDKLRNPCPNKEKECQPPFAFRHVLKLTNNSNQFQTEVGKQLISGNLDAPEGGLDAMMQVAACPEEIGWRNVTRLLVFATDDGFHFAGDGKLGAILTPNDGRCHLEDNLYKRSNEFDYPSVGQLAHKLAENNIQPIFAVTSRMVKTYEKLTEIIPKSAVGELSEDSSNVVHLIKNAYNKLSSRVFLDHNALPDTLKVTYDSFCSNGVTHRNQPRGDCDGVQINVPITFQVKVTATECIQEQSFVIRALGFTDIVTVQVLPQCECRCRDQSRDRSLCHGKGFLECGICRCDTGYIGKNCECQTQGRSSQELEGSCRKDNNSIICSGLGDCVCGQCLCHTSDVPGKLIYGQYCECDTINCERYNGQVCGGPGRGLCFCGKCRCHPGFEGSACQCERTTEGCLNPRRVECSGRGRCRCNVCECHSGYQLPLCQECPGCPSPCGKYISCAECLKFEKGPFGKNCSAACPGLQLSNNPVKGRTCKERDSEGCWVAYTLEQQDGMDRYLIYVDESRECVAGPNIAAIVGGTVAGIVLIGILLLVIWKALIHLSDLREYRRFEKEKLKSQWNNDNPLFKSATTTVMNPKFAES
T1 sequence (P20701 26-1170): as the sequence (P20701 26-1170) above
T1 sequence (P05107 23-769): as the sequence (P05107 23-769) above

B1: sICAM-1: truncated form of native ICAM-1 without the transmembrane and cytoplasmic domains, with intact LFA-1 binding epitope; R&D Systems (protein, UniProt P05362 28-480, looked up)
extracellular domain: QTSVSPSKVILPRGGSVLVTCSTSCDQPKLLGIETPLPKKELLLPGNNRKVYELSNVQEDSQPMCYSNCPDGQSTAKTFLTVYWTPERVELAPLPSWQPVGKNLTLRCQVEGGAPRANLTVVLLRGEKELKREPAVGEPAEVTTTVLVRRDHHGANFSCRTELDLRPQGLELFENTSAPYQLQTFVLPATPPQLVSPRVLEVDTQGTVVCSLDGLFPVSEAQVHLALGDQRLNPTVTYGNDSFSAKASVSVTAEDEGTQRLTCAVILGNQSQETLQTVTIYSFPAPNVILTKPEVSEGTEVTVKCEAHPRAKVTLNGVPAQPLGPRAQLLLKATPEDNGRSFSCSATLEVAGQLIHKNQTRELRVLYGPRLDERDCPGNWTWPENSQQTPMCQAWGNPLPELKCLKDGTFPLPIGESVTVTRDLEGTYLCRARSTQGEVTRKVTVNVLSPRYE
modifications: extracellular domain
notes: R&D Systems
- effect of increasing antagonist concentration on compound 2B binding curves (LFA-1 [1]): showed a similar effect
- effect of increasing antagonist concentration on ICAM-1-Ig binding curves (LFA-1/ICAM-1; FIG. 10A, C, E): shifted the ICAM-1-Ig binding curves rightward to higher EC50 values
- slope of Schild regression (LFA-1/ICAM-1; ligand ICAM-1-Ig, FIG. 11): 1.26
- y-intercept of Schild regression (LFA-1/ICAM-1; ligand ICAM-1-Ig, FIG. 11): 8.51
- IC50 (LFA-1 [2]): 1.2 µM
